# Experimental data as given in PMC4195903.
# Where “and” joins values, the source holds several entries; their conditions need not be identical. Equal entries are not always repeated.
# Assays:
# [1] = biological target: serum thymidine kinase 1 (sTK1), dog (dog (endogenous in serum)); experiment: SEC; CMT serum (dog No. 23) on Superose 12 (FPLC), 0.01 M HEPES pH 7.6, 0.15 M NH4Cl, 0.02% NaN3; fractions tested for TK1 activity and by immunoaffinity/Western blot
# [2] = biological target: cellular thymidine kinase 1 (TK1), dog (dog (endogenous in ALL cells and mammary tumor tissue)); experiment: SEC; CMT tissue extract (dog No. 23) on Superose 12 (FPLC), 0.01 M HEPES pH 7.6, 0.15 M NH4Cl, 0.02% NaN3; fractions tested for TK1 activity and by immunoaffinity/Western blot
# [3] = biological target: cellular thymidine kinase 1 (TK1), dog (dog (endogenous in ALL cells and mammary tumor tissue)); experiment: SEC; ALL cell extract on Superose 12 (FPLC), 0.01 M HEPES pH 7.6, 0.15 M NH4Cl, 0.02% NaN3; fractions tested for TK1 activity and by immunoaffinity/Western blot
stoichiometry N [1],stoichiometry N [2],stoichiometry N [3],Substance
2 and 4,,,"serum thymidine kinase 1 (sTK1), dog (enzyme)"
,4,2,"cellular thymidine kinase 1 (TK1), dog (enzyme)"
